The results in this text go back to patent US20110104789A1.

In test [1] the target is human EF-2 mutant (G717R) (human) (UniProt P13639). Put plainly: cell-based or functional assay.
For test [2], the target named is human elongation factor 2 (EF-2) (human) (UniProt P13639). Put plainly: cell-based or functional assay.

The substance “DT-A(176) (from UniProt P00587 26-210) (enzyme)” registered a GFP-positive cells relative to control vector pNL-GFP-RRE-SA, DT-resistant EF-2 mutant cell line 5H7 in test [1] of 70 to 80%.

“DT-A(E148D) (from UniProt P00587 26-210) (enzyme)”: the GFP-positive cells relative to control vector pNL-GFP-RRE-SA, DT-resistant EF-2 mutant cell line 5H7 in test [1] was in the range of 70 to 80%.

“DT-A(E148S) (from UniProt P00587 26-210) (enzyme)” had a GFP-positive cells relative to control vector pNL-GFP-RRE-SA, DT-resistant EF-2 mutant cell line 5H7 in test [1] of 70 to 80%.

For the substance “DT-AΔN (from UniProt P00587 39-210) (enzyme)”, the GFP-positive cells relative to control vector pNL-GFP-RRE-SA, DT-resistant EF-2 mutant cell line 5H7 in test [1] lay within 70 to 80%.

“wild type diphtheria toxin A chain (DT-A) (from UniProt P00587 26-210) (enzyme)”: in test [2], the GFP-positive cells after cotransfection with pNL-DT-GFP-RRE-SA plus pCMVΔR8.2, parental HEK293T cells (FIG. 4A) was found to be 0% and the GFP-positive cells, HEK293T cells (FIG. 4B; control pNL-DT(R)-GFP-RRE-SA gave 43%) was 0%. Also, in test [1], the GFP-positive cells after cotransfection with pNL-DT-GFP-RRE-SA plus pCMVΔR8.2, EF-2 mutant clone 4H10 (FIG. 4A) was found to be 14%; the GFP-positive cells after cotransfection with pNL-DT-GFP-RRE-SA plus pCMVΔR8.2, EF-2 mutant clone 5E12 (FIG. 4A) worked out at 9%; the GFP-positive cells after cotransfection with pNL-DT-GFP-RRE-SA plus pCMVΔR8.2, EF-2 mutant clone 5H7 (FIG. 4A) turned out to be 46%; the GFP-positive cells after cotransfection with pNL-DT-GFP-RRE-SA plus pCMVΔR8.2, EF-2 mutant clone AB1 (FIG. 4A) was found to be 24%. Also, in test [1], the GFP-positive cells after cotransfection with pNL-DT-GFP-RRE-SA plus pCMVΔR8.2, EF-2 mutant clone CB2 (FIG. 4A) worked out at 28%; the GFP-positive cells, 5H7 cells (FIG. 4B; control pNL-DT(R)-GFP-RRE-SA gave 64%) was determined as 54%; the share of 5H7 cells surviving the toxin is above 80%.
